Earlier results, collected in article PMC5662943.

Target: PCNA (Homo sapiens) (UniProt P12004)
Chain of UniProt P12004 (P12004 whole entry): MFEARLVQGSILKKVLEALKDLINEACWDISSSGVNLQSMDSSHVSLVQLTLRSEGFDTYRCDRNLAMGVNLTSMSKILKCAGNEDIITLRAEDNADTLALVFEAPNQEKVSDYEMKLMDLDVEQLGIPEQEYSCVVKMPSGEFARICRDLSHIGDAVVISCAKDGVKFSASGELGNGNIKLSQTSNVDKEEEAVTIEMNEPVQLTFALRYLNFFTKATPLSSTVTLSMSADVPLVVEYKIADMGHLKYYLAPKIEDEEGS

RFC (from UniProt P35251)
Kd: 0.2 nM
